Laboratory results as given in the supplement of paper PMC7125110.
± gives the standard error. For some of these results: Fewer inactive variants are shown than the library holds.

B1: glmS ribozyme (parent)
chain: AUAAAAGCGCCAGAACUACAGAAAUGUAGUUGACGAGGAGGAGGUUUAUCGAAUUUUCGGCGGAUGCCUCCAAA

Columns and labels:
Conditions in all cases: with glucosamine-6-phosphate
[1] = variants of: B1; experiment: kcat; higher = faster cleavage; RNA array
Method in brief: (§1)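 A hybridised Cy3 probe tracked barcoded ribozyme variants, transcribed in situ by E. coli RNA polymerase on sequenced MiSeq chips, at 37 °C. The variants received 40 μM to 10 mM glucosamine-6-phosphate in HEPES/KCl/Mg(OAc)2 buffer. kobs came from decay fits and kcat and KM from weighted Michaelis–Menten fits.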

[2] = variants of: B1; experiment: KM; higher = weaker cofactor use; RNA array
Method in brief: as §1

[3] = variants of: B1; experiment: self-cleavage kobs at 640 uM GlcN6P; higher = faster cleavage; RNA array
Method in brief: as §1

[4] = variants of: B1; experiment: self-cleavage kobs at 2500 uM GlcN6P; higher = faster cleavage; RNA array
Method in brief: as §1

[5] = variants of: B1; experiment: self-cleavage kobs at 10000 uM GlcN6P; higher = faster cleavage; RNA array
Method in brief: as §1

[6] = variants of: B1; experiment: self-cleavage kobs at 40 uM GlcN6P; higher = faster cleavage; RNA array
Method in brief: as §1

[7] = variants of: B1; experiment: self-cleavage kobs at 160 uM GlcN6P; higher = faster cleavage; RNA array
Method in brief: as §1

| Variant | kcat [1] | KM [2] | self-cleavage kobs at 640 uM GlcN6P [3] | self-cleavage kobs at 2500 uM GlcN6P [4] | self-cleavage kobs at 10000 uM GlcN6P [5] | self-cleavage kobs at 40 uM GlcN6P [6] | self-cleavage kobs at 160 uM GlcN6P [7] |
| --- | --- | --- | --- | --- | --- | --- | --- |
| G41U C71G | 0.000121 ± 9e-06 s⁻¹ | 1780 ± 490 µM | 2.64e-05 ± 1.1e-05 s⁻¹ | 8.28e-05 ± 1.7e-05 s⁻¹ | 0.000102 ± 9.5e-06 s⁻¹ |  |  |
| G29A U30C | 3.24e-05 ± 8.4e-06 s⁻¹ |  |  | 4.91e-05 ± 1.5e-05 s⁻¹ | 2.58e-05 ± 1e-05 s⁻¹ |  |  |
| U31G G44U | 0.000237 ± 6.3e-05 s⁻¹ | 8740 ± 3600 µM |  | 4.98e-05 ± 1.3e-05 s⁻¹ | 0.000129 ± 3e-05 s⁻¹ |  |  |
| U69C C70U | 0.000681 ± 0.00015 s⁻¹ | 854 ± 350 µM | 0.000254 ± 3.7e-05 s⁻¹ | 0.000524 ± 7.1e-05 s⁻¹ | 0.000743 ± 0.00018 s⁻¹ | 5.3e-05 ± 1.3e-05 s⁻¹ | 0.000108 ± 2.4e-05 s⁻¹ |
| U45A U69A | 0.000153 ± 3.8e-05 s⁻¹ |  | 9.56e-05 ± 2.4e-05 s⁻¹ | 0.000129 ± 3.7e-05 s⁻¹ | 0.000167 ± 2.1e-05 s⁻¹ | 5.69e-05 ± 1.3e-05 s⁻¹ |  |
| U45A U56G | 0.0614 ± 0.024 s⁻¹ | 3390 ± 1600 µM | 0.0108 ± 0.0024 s⁻¹ | 0.0272 ± 0.0087 s⁻¹ | 0.0457 ± 0.011 s⁻¹ | 0.000857 ± 0.00011 s⁻¹ | 0.00188 ± 0.00049 s⁻¹ |
| G40C A42U | 3.99e-05 ± 4.6e-06 s⁻¹ |  |  | 4.68e-05 ± 2.2e-05 s⁻¹ | 3.64e-05 ± 1.1e-05 s⁻¹ |  |  |
| A12G G66C | 8.51e-05 ± 6.1e-06 s⁻¹ | 857 ± 290 µM | 4.42e-05 ± 1.9e-05 s⁻¹ | 5.86e-05 ± 1.3e-05 s⁻¹ | 8.08e-05 ± 1.3e-05 s⁻¹ |  |  |
| C11G U30A | 4.67e-05 ± 2.4e-06 s⁻¹ |  |  |  |  |  |  |
| G37C C70U | 2.69e-05 ± 6.4e-06 s⁻¹ |  | 2.26e-05 ± 9.4e-06 s⁻¹ | 1.7e-05 ± 5.8e-06 s⁻¹ | 3.18e-05 ± 7.2e-06 s⁻¹ |  |  |
| G35U U54G C70A | 1.53e-05 ± 4.8e-06 s⁻¹ |  |  | < 1e-05 s⁻¹ |  |  |  |
| A6U U30C | < 1e-05 s⁻¹ |  | < 1e-05 s⁻¹ | < 1e-05 s⁻¹ |  |  |  |
| U30C G60U | < 1e-05 s⁻¹ |  | < 1e-05 s⁻¹ |  | < 1e-05 s⁻¹ | < 1e-05 s⁻¹ |  |
| C11G G59U C68A | 1.43e-05 ± 2.1e-06 s⁻¹ |  |  |  |  |  |  |
| A42C G66A | 0.000322 ± 2.8e-05 s⁻¹ | 1090 ± 210 µM | 0.000125 ± 1.5e-05 s⁻¹ | 0.000208 ± 2.9e-05 s⁻¹ | 0.000305 ± 4.2e-05 s⁻¹ |  |  |
| G40U C71U | 0.00842 ± 0.0008 s⁻¹ | 1490 ± 200 µM | 0.00248 ± 0.00024 s⁻¹ | 0.00464 ± 0.0005 s⁻¹ | 0.00794 ± 0.00065 s⁻¹ | 0.000232 ± 1.6e-05 s⁻¹ | 0.000742 ± 0.00011 s⁻¹ |
| G37U A64C | < 1e-05 s⁻¹ |  |  |  |  | < 1e-05 s⁻¹ |  |
| C10U A52G | < 1e-05 s⁻¹ |  |  |  |  |  |  |
| G32A | 0.00528 ± 0.00074 s⁻¹ | 4250 ± 750 µM | 0.00064 ± 1.1e-05 s⁻¹ | 0.00219 ± 7.7e-05 s⁻¹ | 0.00372 ± 7.6e-05 s⁻¹ | 5.63e-05 ± 1.2e-06 s⁻¹ | 0.000185 ± 5.1e-06 s⁻¹ |
| G38U U65A | < 1e-05 s⁻¹ |  |  |  |  |  | < 1e-05 s⁻¹ |

| Variant | kcat [1] | KM [2] | self-cleavage kobs at 640 uM GlcN6P [3] | self-cleavage kobs at 2500 uM GlcN6P [4] | self-cleavage kobs at 10000 uM GlcN6P [5] | self-cleavage kobs at 40 uM GlcN6P [6] | self-cleavage kobs at 160 uM GlcN6P [7] |
| --- | --- | --- | --- | --- | --- | --- | --- |
| G37C C68U | 1.59e-05 ± 1.1e-06 s⁻¹ |  |  |  |  | < 1e-05 s⁻¹ |  |
| A39U U56G | 0.0257 ± 0.011 s⁻¹ |  | 0.0021 ± 0.00031 s⁻¹ | 0.00893 ± 0.0013 s⁻¹ | 0.0139 ± 0.0021 s⁻¹ | 0.000177 ± 2.7e-05 s⁻¹ | 0.000402 ± 8.7e-05 s⁻¹ |
| U30C U47A | 0.000176 ± 9.3e-06 s⁻¹ | 1400 ± 190 µM | 5.72e-05 ± 8.2e-06 s⁻¹ | 0.000106 ± 1.2e-05 s⁻¹ | 0.00016 ± 1.6e-05 s⁻¹ |  |  |
| G40A G66U | 0.000238 ± 1.9e-05 s⁻¹ | 2050 ± 330 µM | 6.02e-05 ± 1.2e-05 s⁻¹ | 0.000124 ± 2e-05 s⁻¹ | 0.000203 ± 3.5e-05 s⁻¹ |  |  |
| C34G C70A | 1.99e-05 ± 6.8e-06 s⁻¹ |  |  |  |  |  |  |
| U56G G60A | 2.37e-05 ± 6.7e-07 s⁻¹ | 623 ± 130 µM |  |  | 2.25e-05 ± 1.1e-05 s⁻¹ | < 1e-05 s⁻¹ |  |
| G59U C67U | 2.54e-05 ± 5.9e-06 s⁻¹ |  |  | 3.07e-05 ± 7.5e-06 s⁻¹ |  |  |  |
| G13U G29U C70A | 3.94e-05 ± 1.3e-05 s⁻¹ |  |  | 4.33e-05 ± 1.9e-05 s⁻¹ |  |  |  |
| G32U U45G | 0.000699 ± 0.00027 s⁻¹ |  |  | 6.97e-05 ± 1.1e-05 s⁻¹ | 0.000203 ± 2.1e-05 s⁻¹ |  |  |
| C61G C67G C70G | < 1e-05 s⁻¹ |  |  |  |  |  |  |
| G29A U46C | 0.00025 ± 1.1e-05 s⁻¹ | 1880 ± 160 µM | 6.39e-05 ± 2e-05 s⁻¹ | 0.000139 ± 3.1e-05 s⁻¹ | 0.000216 ± 6.1e-05 s⁻¹ |  |  |
| G66C C70G | 0.000116 ± 4e-06 s⁻¹ | 490 ± 56 µM | 6.38e-05 ± 8.2e-06 s⁻¹ | 9.88e-05 ± 1.2e-05 s⁻¹ | 0.000111 ± 1.5e-05 s⁻¹ |  | 3.35e-05 ± 1.2e-05 s⁻¹ |
| C16A G32U | 0.000568 ± 9.6e-05 s⁻¹ | 6390 ± 1500 µM | 5.63e-05 ± 1e-05 s⁻¹ | 0.000143 ± 2.8e-05 s⁻¹ | 0.000363 ± 6.7e-05 s⁻¹ |  |  |
| A12G U31A G32U | 6.44e-05 ± 1.1e-06 s⁻¹ | 5790 ± 240 µM |  |  | 4.08e-05 ± 1.1e-05 s⁻¹ |  |  |
| C11A C67G | 5.42e-05 ± 1.1e-05 s⁻¹ |  | 8.75e-05 ± 1.5e-05 s⁻¹ | 3.8e-05 ± 1e-05 s⁻¹ | 5.65e-05 ± 8.7e-06 s⁻¹ |  | 3.16e-05 ± 1.1e-05 s⁻¹ |
| G37U C50U C70U | 3.99e-05 ± 1.4e-05 s⁻¹ |  |  |  |  |  |  |
| G63A U69A | 4.23e-05 ± 1.2e-05 s⁻¹ |  |  |  |  |  | 5.41e-05 ± 2e-05 s⁻¹ |
| G7C G38C | < 1e-05 s⁻¹ |  |  |  | < 1e-05 s⁻¹ |  |  |
| A15G | 0.0648 ± 0.0031 s⁻¹ | 2180 ± 120 µM | 0.0144 ± 0.00063 s⁻¹ | 0.0326 ± 0.0018 s⁻¹ | 0.0552 ± 0.0025 s⁻¹ | 0.00118 ± 2.4e-05 s⁻¹ | 0.00423 ± 0.00032 s⁻¹ |
